Data as given in the supplement of paper PMC9112550, “Optimization of the antimicrobial peptide Bac7 by deep mutational scanning” (BMC Biology, 2022).

Each sequence was assayed on Escherichia coli TOP10 (assay: shrunken log2 fold change of peptide-encoding DNA abundance (4.5 h post-induction vs induction); higher = less antimicrobial activity (less host growth inhibition)). Conditions: time post-induction: 4.5 h; library: site-saturation at positions 5, 18, 19, 20.
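Note: peptides expressed intracellularly from a pBAD plasmid library in pooled LB shake-flask culture, induced with 0.3% L-arabinose, DNA abundance read by NGS, three biological replicates, DESeq2 with apeglm shrinkage.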

Row | Sequence | shrunken log2 fold change
1 | RRIRYRPPRLPRPRPRPCAGPRP | -0.0602
2 | RRIRCRPPRLPRPRPRPWYYPRP | -0.698
3 | RRIRPRPPRLPRPRPRPKTQPRP | -0.02
4 | RRIRFRPPRLPRPRPRPSILPRP | -0.442
5 | RRIRQRPPRLPRPRPRPVTVPRP | 0.153
6 | RRIRLRPPRLPRPRPRPFYTPRP | -0.338
7 | RRIRMRPPRLPRPRPRPCGIPRP | -0.0517
8 | RRIRERPPRLPRPRPRPTRTPRP | 0.374
9 | RRIRQRPPRLPRPRPRPPCEPRP | -0.00701
10 | RRIRQRPPRLPRPRPRPFMGPRP | -0.0627
11 | RRIRNRPPRLPRPRPRPLCAPRP | 0.194
12 | RRIRARPPRLPRPRPRPEDKPRP | 1.89
13 | RRIRQRPPRLPRPRPRPNNRPRP | -0.686
14 | RRIRGRPPRLPRPRPRPALNPRP | 0.705
15 | RRIRLRPPRLPRPRPRPICQPRP | 0.0108
16 | RRIRMRPPRLPRPRPRPPNEPRP | 0.2
17 | RRIRTRPPRLPRPRPRPHGEPRP | 0.16
18 | RRIRYRPPRLPRPRPRPFGRPRP | -0.0018
19 | RRIRSRPPRLPRPRPRPMSEPRP | 0.0489
20 | RRIRVRPPRLPRPRPRPYVGPRP | -0.0869
21 | RRIRDRPPRLPRPRPRPVHLPRP | -0.23
22 | RRIRSRPPRLPRPRPRPDSIPRP | 0.0681
23 | RRIRERPPRLPRPRPRPQCSPRP | -0.442
24 | RRIRLRPPRLPRPRPRPGNTPRP | -0.242
25 | RRIRHRPPRLPRPRPRPFQQPRP | -0.0263

Row | Sequence | shrunken log2 fold change
26 | RRIRRRPPRLPRPRPRPMWYPRP | 0.0371
27 | RRIRERPPRLPRPRPRPYKNPRP | -0.756
28 | RRIRFRPPRLPRPRPRPFDYPRP | -0.111
29 | RRIRGRPPRLPRPRPRPTLLPRP | 0.884
30 | RRIRARPPRLPRPRPRPPDQPRP | 1.16
31 | RRIRKRPPRLPRPRPRPLKAPRP | 0.0198
32 | RRIRMRPPRLPRPRPRPNREPRP | 0.0182
33 | RRIRWRPPRLPRPRPRPFQTPRP | -0.00783
34 | RRIRHRPPRLPRPRPRPPETPRP | 0.0733
35 | RRIRCRPPRLPRPRPRPDDVPRP | -0.0387
36 | RRIRFRPPRLPRPRPRPYRRPRP | -0.506
37 | RRIRVRPPRLPRPRPRPGFYPRP | -0.345
38 | RRIRCRPPRLPRPRPRPNTLPRP | -0.535
39 | RRIRCRPPRLPRPRPRPQSQPRP | 0.131
40 | RRIRMRPPRLPRPRPRPDPCPRP | 0.0496
41 | RRIRTRPPRLPRPRPRPVHDPRP | -0.0747
42 | RRIRRRPPRLPRPRPRPLCHPRP | 0.182
43 | RRIRYRPPRLPRPRPRPDCYPRP | -3.15
44 | RRIRHRPPRLPRPRPRPQPDPRP | -0.0791
45 | RRIRIRPPRLPRPRPRPVEAPRP | -0.205
46 | RRIRGRPPRLPRPRPRPHIIPRP | 0.234
47 | RRIRSRPPRLPRPRPRPQAHPRP | -0.0418
48 | RRIRSRPPRLPRPRPRPKRVPRP | 0.0219
49 | RRIRQRPPRLPRPRPRPDNLPRP | -0.348
50 | RRIRFRPPRLPRPRPRPQGPPRP | 0.0563

Row | Sequence | shrunken log2 fold change
51 | RRIRGRPPRLPRPRPRPFQCPRP | -0.0282
52 | RRIRPRPPRLPRPRPRPARDPRP | 0.208
53 | RRIRLRPPRLPRPRPRPRYIPRP | -0.683
54 | RRIRYRPPRLPRPRPRPAYSPRP | -0.267
55 | RRIRERPPRLPRPRPRPPPDPRP | 0.505
56 | RRIRIRPPRLPRPRPRPATCPRP | -0.349
57 | RRIRPRPPRLPRPRPRPHCTPRP | -0.479
58 | RRIRDRPPRLPRPRPRPLPIPRP | 0.162
59 | RRIRERPPRLPRPRPRPLGLPRP | -0.00554
60 | RRIRWRPPRLPRPRPRPMPPPRP | 0.411
61 | RRIRIRPPRLPRPRPRPREVPRP | -0.118
62 | RRIRKRPPRLPRPRPRPRNEPRP | 0.0551
63 | RRIRCRPPRLPRPRPRPADKPRP | -0.0716
64 | RRIRGRPPRLPRPRPRPHCVPRP | 0.517
65 | RRIRTRPPRLPRPRPRPYWRPRP | -0.174
66 | RRIRFRPPRLPRPRPRPLTAPRP | -0.0807
67 | RRIRCRPPRLPRPRPRPSGQPRP | -0.0552
68 | RRIRFRPPRLPRPRPRPNLCPRP | 0.00999
69 | RRIRLRPPRLPRPRPRPQGYPRP | -0.141
70 | RRIRTRPPRLPRPRPRPTDLPRP | -0.0718
71 | RRIRGRPPRLPRPRPRPLIVPRP | 0.274
72 | RRIRERPPRLPRPRPRPLINPRP | -0.512
73 | RRIRKRPPRLPRPRPRPATYPRP | 0.0782
74 | RRIRVRPPRLPRPRPRPCWTPRP | -0.665
75 | RRIRGRPPRLPRPRPRPFDWPRP | 0.0459

Row | Sequence | shrunken log2 fold change
76 | RRIRFRPPRLPRPRPRPWPMPRP | -0.117
77 | RRIRCRPPRLPRPRPRPGHMPRP | -0.0628
78 | RRIRERPPRLPRPRPRPEASPRP | -0.0341
79 | RRIRGRPPRLPRPRPRPGYDPRP | 0.371
80 | RRIRGRPPRLPRPRPRPGRFPRP | 0.45
81 | RRIRDRPPRLPRPRPRPIHWPRP | -0.18
82 | RRIRYRPPRLPRPRPRPGPVPRP | -0.16
83 | RRIRARPPRLPRPRPRPIFSPRP | -0.00994
84 | RRIRARPPRLPRPRPRPYICPRP | -0.326
85 | RRIRARPPRLPRPRPRPYNVPRP | -0.284
86 | RRIRERPPRLPRPRPRPNNGPRP | -0.0529
87 | RRIRYRPPRLPRPRPRPLYLPRP | -0.992
88 | RRIRFRPPRLPRPRPRPKWWPRP | -0.0582
89 | RRIRSRPPRLPRPRPRPKHPPRP | -0.194
90 | RRIRTRPPRLPRPRPRPIDAPRP | -0.0859
91 | RRIRQRPPRLPRPRPRPEHDPRP | -0.0684
92 | RRIRHRPPRLPRPRPRPFAHPRP | 0.186
93 | RRIRIRPPRLPRPRPRPGNTPRP | -0.546
94 | RRIRCRPPRLPRPRPRPTNHPRP | -0.573
95 | RRIRARPPRLPRPRPRPKRAPRP | 0.65
96 | RRIRGRPPRLPRPRPRPSGTPRP | 0.913
97 | RRIRIRPPRLPRPRPRPWDPPRP | -0.0252
98 | RRIRKRPPRLPRPRPRPWVRPRP | -0.0489
99 | RRIRLRPPRLPRPRPRPCYFPRP | -0.232
100 | RRIRDRPPRLPRPRPRPYRYPRP | -0.0188

Row | Sequence | shrunken log2 fold change
101 | RRIRARPPRLPRPRPRPRKPPRP | 0.114
102 | RRIRIRPPRLPRPRPRPTGIPRP | -0.0849
103 | RRIRKRPPRLPRPRPRPGAYPRP | 0.0945
104 | RRIRYRPPRLPRPRPRPLFKPRP | -0.646
105 | RRIRERPPRLPRPRPRPVICPRP | -0.72
106 | RRIRYRPPRLPRPRPRPGTGPRP | 0.147
107 | RRIRHRPPRLPRPRPRPATWPRP | 0.222
108 | RRIRHRPPRLPRPRPRPVFGPRP | 0.0859
109 | RRIRGRPPRLPRPRPRPQVQPRP | 0.273
110 | RRIRCRPPRLPRPRPRPALKPRP | 0.0946
111 | RRIRIRPPRLPRPRPRPFRRPRP | 0.017
112 | RRIRERPPRLPRPRPRPPTCPRP | -0.0707
113 | RRIRQRPPRLPRPRPRPNTIPRP | 0.0518
114 | RRIRRRPPRLPRPRPRPNMCPRP | -0.368
115 | RRIRDRPPRLPRPRPRPMSSPRP | 0.0508
116 | RRIRERPPRLPRPRPRPRPGPRP | 0.464
117 | RRIRKRPPRLPRPRPRPPWCPRP | 0.401
118 | RRIRPRPPRLPRPRPRPRFWPRP | 0.579
119 | RRIRFRPPRLPRPRPRPPPNPRP | 1.33
120 | RRIRFRPPRLPRPRPRPPHWPRP | 0.617
121 | RRIRCRPPRLPRPRPRPAYFPRP | -0.361
122 | RRIRKRPPRLPRPRPRPIFWPRP | 0.313
123 | RRIRDRPPRLPRPRPRPMFAPRP | 0.199
124 | RRIRLRPPRLPRPRPRPMNDPRP | -0.219
125 | RRIRHRPPRLPRPRPRPVSYPRP | -0.00133

Row | Sequence | shrunken log2 fold change
126 | RRIRCRPPRLPRPRPRPNSTPRP | -0.76
127 | RRIRMRPPRLPRPRPRPPWLPRP | 0.568
128 | RRIRPRPPRLPRPRPRPRKCPRP | 0.0115
129 | RRIRVRPPRLPRPRPRPSVCPRP | 0.0223
130 | RRIRFRPPRLPRPRPRPSIIPRP | -0.279
131 | RRIRCRPPRLPRPRPRPANIPRP | -0.443
132 | RRIRTRPPRLPRPRPRPNTRPRP | -0.318
133 | RRIRARPPRLPRPRPRPSNSPRP | -0.156
134 | RRIRWRPPRLPRPRPRPWWFPRP | 0.0217
135 | RRIRNRPPRLPRPRPRPQTGPRP | -0.505
136 | RRIRDRPPRLPRPRPRPFMLPRP | -0.342
137 | RRIRNRPPRLPRPRPRPMYDPRP | 0.0456
138 | RRIRCRPPRLPRPRPRPIRPPRP | -0.0704
139 | RRIRARPPRLPRPRPRPINGPRP | -0.00875
140 | RRIRARPPRLPRPRPRPGGQPRP | 0.262
141 | RRIRNRPPRLPRPRPRPTQCPRP | -0.093
142 | RRIRIRPPRLPRPRPRPHLWPRP | -0.256
143 | RRIRKRPPRLPRPRPRPWRAPRP | 0.5
144 | RRIRGRPPRLPRPRPRPIRNPRP | -0.0262
145 | RRIRRRPPRLPRPRPRPWAWPRP | 0.0216
146 | RRIRVRPPRLPRPRPRPPIGPRP | 0.174
147 | RRIRVRPPRLPRPRPRPYQGPRP | -0.236
148 | RRIRTRPPRLPRPRPRPLEYPRP | -0.668
149 | RRIRTRPPRLPRPRPRPPRCPRP | 0.391
150 | RRIRIRPPRLPRPRPRPWPLPRP | -0.122
